{"source": "patent US20210253706A1", "key": {"human PD-1 (human)": {"biological_target": "human PD-1 (human) (UniProt Q15116)", "sequence (Q15116 25-170 limits assumed)": "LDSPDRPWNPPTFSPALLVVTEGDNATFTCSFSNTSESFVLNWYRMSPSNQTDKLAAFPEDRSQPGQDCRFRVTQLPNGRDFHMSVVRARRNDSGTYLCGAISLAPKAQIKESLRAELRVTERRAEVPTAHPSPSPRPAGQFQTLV", "test": "Octet (BLI), global 1:1 binding model"}, "huICOS": {"biological_target": "huICOS (UniProt Q9Y6W8)", "sequence (Q9Y6W8 21-140 limits assumed)": "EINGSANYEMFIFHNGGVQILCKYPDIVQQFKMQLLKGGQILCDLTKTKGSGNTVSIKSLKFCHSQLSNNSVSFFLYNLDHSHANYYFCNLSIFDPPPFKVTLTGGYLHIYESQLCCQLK", "test": "Octet (BLI), global 1:1 binding model"}, "[1]": {"biological_target": "cynomolgus ICOS (Macaca fascicularis (cynomolgus))", "sequence (Q9Y6W8 21-140 H101R limits assumed)": "as the sequence (Q9Y6W8 21-140 limits assumed) above, with H81R counted along it", "test": "Octet (BLI), global 1:1 binding model"}, "[2]": {"biological_target": "cynomolgus PD-1 (Macaca fascicularis (cynomolgus))", "sequence (Q15116 other isoform, or with tags, fused parts or gaps limits assumed)": "as the sequence (Q15116 25-170 limits assumed) above, with D2E, P10A, V19L, T35A, Q75R, T144A counted along it", "test": "Octet (BLI), global 1:1 binding model"}, "[3]": {"biological_target": "human PD-1 expressed on cells (human) (UniProt Q15116)", "sequence (Q15116 25-288 limits assumed)": "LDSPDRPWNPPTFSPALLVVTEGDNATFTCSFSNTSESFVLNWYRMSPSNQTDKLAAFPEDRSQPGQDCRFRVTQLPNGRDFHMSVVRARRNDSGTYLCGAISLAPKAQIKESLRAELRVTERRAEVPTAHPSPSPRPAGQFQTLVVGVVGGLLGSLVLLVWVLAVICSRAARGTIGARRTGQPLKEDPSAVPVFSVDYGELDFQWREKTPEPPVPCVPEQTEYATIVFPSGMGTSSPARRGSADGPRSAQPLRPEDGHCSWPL", "test": "flow cytometry; blocking of 0.1 µg/mL soluble PD-L2 (mFc-Alexa647) binding to HEK 293T cells expressing PD-1 and ICOS"}, "[4]": {"biological_target": "human ICOS expressed on cells (human) (UniProt Q9Y6W8)", "sequence (Q9Y6W8 21-199 limits assumed)": "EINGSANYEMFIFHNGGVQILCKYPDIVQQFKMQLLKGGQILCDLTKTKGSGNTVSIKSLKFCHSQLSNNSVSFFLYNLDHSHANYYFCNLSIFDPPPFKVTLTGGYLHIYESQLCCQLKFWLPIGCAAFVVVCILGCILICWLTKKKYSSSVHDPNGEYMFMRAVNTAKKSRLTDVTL", "test": "flow cytometry; blocking of 0.5 µg/mL ICOSL-mFc-Alex647 binding to HEK 293T cells expressing PD-1 and ICOS"}, "[5]": {"biological_target": "human PD-1 expressed on cells (human) (UniProt Q15116)", "test": "flow cytometry; blocking of 1 µg/mL PD-L1-mFc-Alexa647 binding to HEK 293T cells expressing PD-1 and ICOS"}}}
{"substance": "XmAb23104 (bispecific antibody)", "values": [{"measurement": "Kd", "setting": "human PD-1 (human)", "result": 2.8, "unit": "nM"}, {"measurement": "Kd", "setting": "huICOS", "result": 2.9, "unit": "nM"}, {"measurement": "Kd", "setting": "[1]", "result": 2.6, "unit": "nM"}, {"measurement": "Kd", "setting": "[2]", "result": 5.8, "unit": "nM"}, {"measurement": "EC10", "setting": "[3]", "result": 0.003, "unit": "µg/mL"}, {"measurement": "EC90", "setting": "[3]", "result": 5.3, "unit": "µg/mL"}, {"measurement": "EC10", "setting": "[4]", "result": 0.02, "unit": "µg/mL"}, {"measurement": "EC90", "setting": "[4]", "result": 0.6, "unit": "µg/mL"}, {"measurement": "EC90", "setting": "[5]", "result": 7.1, "unit": "µg/mL"}]}
